According to publication PMC2603668, “Rhabdovirus Matrix Protein Structures Reveal a Novel Mode of Self-Association” (PLoS Pathogens, 2008):

Biological target: the molecule itself
Experiment: crystal structure

B1: matrix (M) protein from Lagos bat virus (natural protein)
chain: MNFLRKIVKNCKDEEIPKPGTPSAPPDDDDLWMPPPEYVPLTQIKGKENVRNFCINGEIKICSPNGYSFRILRHILKSFDNVYSGNRRLIGVVKVVIGLVLSASPVPEGMNWVYKLRRTLIFQWAESHGPLEGEELEYSQEITWDDEAEFVSLQIRVSAKQCHIQGRLWCINMNSKACQLWADMGLKTQQSQEDENTSLLLE
notes: also called LBV M; full-length LBV M
Does B1 bind?
Result: binds
